In US20250136687A1 (SHANDONG SIMCERE BIOPHARMACEUTICAL, published 2025):

Columns and labels:
[1] = biological target: T1, cynomolgus monkey CD3 on the surface of expanded monkey T cells (cynomolgus monkey, UniProt Q95LI5 22-198; Q95LI8 22-171; Q95LI7 23-181); assay: FACS, monkey T cells, hybridoma screening
T1 construct: whole, on cells; Endogenous CD3 within the TCR-CD3 complex on T cells expanded from cynomolgus monkey PBMC
Description: (§1) Suspension cells Jurkat cells (purchased from Cell bank of Chinese Academy of Sciences) were scale-up cultured in T-175 cell culture flasks to the logarithmic growth phase, the supernatant of the medium was discarded by centrifugation, and the cell pellet was washed 2 times with PBS. After counting the cells in the previous step, the cell pellet was resuspended with [PBS+2% (w/v) FBS] blocking solution to 4×10⁶ cells/ml, and added to a 96-well FACS reaction plate at 50 μl/well, the supernatant was removed by centrifugation, detection antibodies (initial concentration of […], gradient dilution at 1:5) and an IgG negative control were added at 100 μl/well, the cells were uniformly mixed, and incubated on ice for 1 h. The cells were centrifuged and washed 3 times with a PBS buffer. […] The cells were centrifuged and washed 5 times with a PBS buffer, and FACS (FACS Canto II, purchased from BD Company) was used for detection and result analysis. Data analysis was performed by software (CellQuest) to obtain the mean fluorescence intensity (MFI) of the cells. And then software (GraphPad Prism8) was used for analysis, data fitting, and EC50 value calculation.
(§2) The binding of the supernatant of the hybridoma to human CD3ε/δ-His (purchased from Sino Biological, Inc. (China), catalog number: CT038-H2508H) and monkey CD3ε/δ-His (purchased from Acrobiosystems, CDD-C52W4) was detected by ELISA for the screening of the supernatant of the hybridoma (see Example 10.1 below). The binding of the supernatant of the ELISA positive hybridoma clone to Jurkat cells and monkey T cells was detected by flow cytometry, and the activation of Jurkat-Lucia NFAT cells (purchased from InvivoGen, catalog number: jktl-nfat) by the supernatant of the hybridoma was detected by a reporter gene system (see Example 2.1, Example 2.4 and Example 7.1 below for the method).

[2] = biological target: T2, human CD3 on the cell surface (Jurkat cells, expanded human T cells, Jurkat-Lucia NFAT cells, human PBMC) (human, UniProt P07766 23-207; P04234 22-171; P09693 23-182); assay: cell-based or functional assay
T2 sequence (P07766 23-207, chain 1 of 3): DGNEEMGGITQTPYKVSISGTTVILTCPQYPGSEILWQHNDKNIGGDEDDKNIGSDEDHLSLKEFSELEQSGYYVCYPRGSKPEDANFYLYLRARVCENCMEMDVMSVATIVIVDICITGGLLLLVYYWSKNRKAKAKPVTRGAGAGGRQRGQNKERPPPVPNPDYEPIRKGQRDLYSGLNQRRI
T2 sequence (P04234 22-171, chain 2 of 3): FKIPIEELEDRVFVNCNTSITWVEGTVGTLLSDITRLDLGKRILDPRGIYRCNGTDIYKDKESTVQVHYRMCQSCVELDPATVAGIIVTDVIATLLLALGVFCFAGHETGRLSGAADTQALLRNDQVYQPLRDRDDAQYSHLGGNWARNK
T2 sequence (P09693 23-182, chain 3 of 3): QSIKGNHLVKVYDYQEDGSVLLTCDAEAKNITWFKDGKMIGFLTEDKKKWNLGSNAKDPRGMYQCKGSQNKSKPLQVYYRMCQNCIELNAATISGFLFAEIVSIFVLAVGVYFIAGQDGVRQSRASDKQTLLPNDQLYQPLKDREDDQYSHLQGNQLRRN

[3] = biological target: T2, human CD3 on the cell surface (Jurkat …); assay: FACS, Jurkat cells, hybridoma screening
Description: as §1, §2

human CD3ε/δ-His = biological target: T3, human CD3ε/δ-His (human, UniProt P07766 23-126; P04234 22-105); assay: ELISA, coated antigen, hybridoma screening
T3 construct: Bought recombinant heterodimer with His tag; also called human CD3ε/δ protein
T3 sequence (P07766 23-126, stated change not applied, form in doubt, chain 1 of 2): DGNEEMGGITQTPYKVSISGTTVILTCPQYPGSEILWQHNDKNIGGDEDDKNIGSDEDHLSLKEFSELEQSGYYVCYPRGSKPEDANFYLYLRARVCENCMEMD
T3 sequence (P04234 22-105, stated change not applied, form in doubt, chain 2 of 2): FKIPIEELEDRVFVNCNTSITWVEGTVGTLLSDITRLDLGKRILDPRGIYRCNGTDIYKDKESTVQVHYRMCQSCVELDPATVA
From the text: as §2
(§3) To detect the binding activity of the humanized antibodies to CD3 protein, CD3 protein was diluted with PBS to the final concentration of […], then added to a 96-well ELISA plate at 50 μL/well, and the plate was sealed with a plastic film, and incubated overnight at 4° C. On the next day, the plate was washed 2 times with PBS, and a blocking solution [PBS+2% (v/v) BSA] was added for blocking at room temperature for 2 h. The blocking solution was poured off, and the antibody (initial concentration of 100 nM, and gradient dilution at 1:10) or a negative control antibody was added at 50 µl/well. After incubation at 37° C. for 2 h, the plate was washed 3 times with PBS. […] TMB substrate was added at 50 μl/well, and incubated at room temperature for 10 min, and then a stop solution (1.0 N HCl) was added at 50 μl/well. The OD450 nm values were read by an ELISA microplate reader (Multimode Plate Reader, EnSight, purchased from Perkin Elmer).

monkey CD3ε/δ-His = biological target: T4, monkey CD3ε/δ-His (monkey, UniProt Q95LI5 22-117; Q95LI8 22-105); assay: ELISA, coated antigen, hybridoma screening
T4 construct: Bought recombinant heterodimer with His tag
T4 sequence (Q95LI5 22-117, stated change not applied, form in doubt, chain 1 of 2): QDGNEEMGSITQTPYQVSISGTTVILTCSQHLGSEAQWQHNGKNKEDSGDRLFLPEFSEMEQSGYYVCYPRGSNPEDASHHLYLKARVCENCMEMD
T4 sequence (Q95LI8 22-105, stated change not applied, form in doubt, chain 2 of 2): as the sequence (P04234 22-105, stated change not applied, form in doubt, chain 2 of 2) above, with I5V, N15K, I20V, S32T, D33N, I34N, T64A, S74N, V83L counted along it
From the text: as §2, §3

T1 sequence (Q95LI5 22-198, chain 1 of 3): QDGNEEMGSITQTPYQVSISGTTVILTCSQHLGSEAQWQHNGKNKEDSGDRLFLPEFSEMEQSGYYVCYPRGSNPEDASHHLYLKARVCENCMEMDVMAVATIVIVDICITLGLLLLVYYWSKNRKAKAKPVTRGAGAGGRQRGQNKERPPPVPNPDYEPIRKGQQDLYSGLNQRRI
T1 sequence (Q95LI8 22-171, chain 2 of 3): as the sequence (P04234 22-171, chain 2 of 3) above, with I5V, N15K, I20V, S32T, D33N, I34N, T64A, S74N, V83L, H141R counted along it
T1 sequence (Q95LI7 23-181, chain 3 of 3): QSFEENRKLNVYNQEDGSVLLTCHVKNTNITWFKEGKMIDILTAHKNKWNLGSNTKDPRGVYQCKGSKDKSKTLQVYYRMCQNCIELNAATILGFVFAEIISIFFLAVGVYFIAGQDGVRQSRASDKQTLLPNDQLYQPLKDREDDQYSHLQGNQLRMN

B1: 1-22.6 murine hybridoma antibody (supernatant) (antibody, V domains shown)
VH: QIPLVQSGPELKKPGETVKISCKTSGYTFTSYGMSWVKQAPGKGLKWMGWINTYSGVPTYADDFKGRFVFSLDTSASTAFLQINNLKNEDTATYFCARLKNNPFCWGQGSTLTVFS
VL: DVLMTQSPLSLPVRLGDQASISCRSSQLILHSNGNTYLEWYLQKPGQSPKLLIYKVSNRFSGVPDRFSGSGSGTDFTLKISRVEAEDLGVYYCFQGSHFPWTFGGGTKLEIK
notes: Tested as hybridoma supernatant
For B1, the Mean fluorescence intensity [1] was 20800 MFI, the “Reporter assay (RLU), Jurkat-Lucia NFAT, supernatant diluted by 4 times” value (from here on “Reporter assay (RLU) … by 4 times”) [2] was 16000 RLU and the “Reporter assay (RLU), Jurkat-Lucia NFAT, supernatant diluted by 20 times” value (from here on “Reporter assay (RLU) … by 20 times”) [2] was 8890 RLU. For the same binder, the Mean fluorescence intensity [3] was 767 MFI, the OD450 (human CD3ε/δ-His) was 2.17 OD450 and the OD450 (monkey CD3ε/δ-His) was 3.08 OD450.

B2: 5-40.21 murine hybridoma antibody (supernatant) (antibody, V domains shown)
VH: QVQLQQPGSELVRPGASVKLSCKASGYTFTSYWMHWVKQRPGQGLEWIGNTYPGSGSTNYDEKFKSKATLTVDSSSSTAYMQLSSLTSEDSAVYYCTRDRYGVYYFDYWGQGTTLTVSS
VL: DIVMSQSPSSLAVSAGEKVTMSCKSSQSLLNSRTRKNYLAWYQQKPGQSPKLLIYWASTRESGVPDRFSGSGSGTDFTLTISSVQAEDLAVYYCTQSYNLRTFGGGTKLEIK
notes: as for B1
For B2, the Mean fluorescence intensity [1] was 15200 MFI, the “Reporter assay (RLU) … by 4 times” value [2] was 18900 RLU and the “Reporter assay (RLU) … by 20 times” value [2] was 15600 RLU. The Mean fluorescence intensity [3] was 6910 MFI, the OD450 (human CD3ε/δ-His) was 2.15 OD450 and the OD450 (monkey CD3ε/δ-His) was 1.82 OD450.

B3: 6-35.22 murine hybridoma antibody (supernatant) (antibody, V domains shown)
VH: EVKLVESGGGLVQPGASLSLSCAASGFTFTDYYMSWVRQPPGKALEWLAMSRNKAKGHTIEYSSSVKGRFTISRDNSQSILYLQMNALRAEDSATYYCARDTYESYDGYFDVWGAGTTVIVSS
VL: DIVMSQSPSSLAVSAGETVTMSCKSSQSLFNSRSRKNYLAWYQQKPGQTPKLLIYWASIRESGVPDRFTGSGSGTDFTLTISSVQAEDLAVYYCKQSYYLYTFGSGTKLEIK
notes: as for B1
In the case of B3, the Mean fluorescence intensity [1] is reported as 32600 MFI, the “Reporter assay (RLU) … by 4 times” value [2] is reported as 29000 RLU and the “Reporter assay (RLU) … by 20 times” value [2] is reported as 34100 RLU. The Mean fluorescence intensity [3] was 7050 MFI, the OD450 (human CD3ε/δ-His) was 2.01 OD450 and the OD450 (monkey CD3ε/δ-His) was 1.74 OD450.

B4: 5-7.13 murine hybridoma antibody (supernatant) (antibody, V domains shown)
VH: QVQLQQPGTELVKPGASVKLSCKASGYTFTSYWVHWVKQRPGQGLEWIGNINPSDGVTNYNEKFKSRATLTVDKSSSTAYMQLSSLTSEDSAVYYCTRDAYGQYYFDDWGQGTTLTVSS
VL: DIVMSQSPSSLVVSAGEKVTMSCKSSQSLLNSRTRKNYLAWYQQKPGQSPKLLIYWASVRDSGVPDRFTGSGSGTDFTLTISNVQAEDLAVYYCIQSYYLRTFGGGTILEIK
notes: as for B1
In the case of B4, the Mean fluorescence intensity [1] is reported as 16300 MFI, the “Reporter assay (RLU) … by 4 times” value [2] is reported as 24500 RLU and the “Reporter assay (RLU) … by 20 times” value [2] is reported as 27800 RLU. For the same binder, the Mean fluorescence intensity [3] was 8280 MFI, the OD450 (human CD3ε/δ-His) was 2.08 OD450 and the OD450 (monkey CD3ε/δ-His) was 2.09 OD450.

B5: 6-44.5 murine hybridoma antibody (supernatant) (antibody, V domains shown)
VH: EVQLQQSGPELVKPGASVKMSCKASGHTFTSHIMHWVKQKPGQGLEWIGYINPNNDRTEYSEKFKGKATLTSDKSSSTAYMELSSLTSEDSAVYYCAGEAYYSNSLYAMDYWGQGTSVTVSS
VL: DIVMSQSPSSLAVSAGEKVTMSCKSSQSLFNSRTRKNYLAWYQQKPGQSPELLIYWASTRESGVPVRFTGSGSGTDFTLTISSVQAEDLAVYYCKQSYYLRTFGGGTKLEVK
notes: as for B1
B5 was tested, and the Mean fluorescence intensity [1] was 36200 MFI, the “Reporter assay (RLU) … by 4 times” value [2] was 26200 RLU and the “Reporter assay (RLU) … by 20 times” value [2] was 21400 RLU. For the same binder, the Mean fluorescence intensity [3] was 7240 MFI, the OD450 (human CD3ε/δ-His) was 2.06 OD450 and the OD450 (monkey CD3ε/δ-His) was 1.94 OD450.

B6: 8-18.1 murine hybridoma antibody (supernatant) (antibody, V domains shown)
VH: QVQLQQSGAELARPGASVKMSCKASGYIFTMNTMHWVKQRPGQGLEWIGYINPYSGYTKYNQIFKDKATLTADKSSSTAYMRLSSLTSEDSAVYYCLRGGEGVWGQGTTLTVSS
VL: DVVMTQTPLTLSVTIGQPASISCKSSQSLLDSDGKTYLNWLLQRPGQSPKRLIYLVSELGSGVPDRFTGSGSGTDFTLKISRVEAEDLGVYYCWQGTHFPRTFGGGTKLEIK
notes: as for B1
For B6, the Mean fluorescence intensity [1] was 3100 MFI, the “Reporter assay (RLU) … by 4 times” value [2] was 27000 RLU and the “Reporter assay (RLU) … by 20 times” value [2] was 17800 RLU. The Mean fluorescence intensity [3] was 895 MFI, the OD450 (human CD3ε/δ-His) was 2.04 OD450 and the OD450 (monkey CD3ε/δ-His) was 2.14 OD450.

B7: 7-35.6 murine hybridoma antibody (supernatant) (antibody, V domains shown)
VH: EVQLVESGGGLVQPKGSLKLSCAASGFTFNTYAMNWVRQAPGKGLEWVGRIRSKINNYATYYGDSVKDRFTISRDDSQSMFYLQMNNLKTEDTAMYYCVIHENYGSISWFAYWGQGTLVTVSA
VL: QAVVTQESTLTTSPGETVTLTCRSSTGAVTTSNYANWVQEKPDHLFTGLIGGTNNRAPGVPARFSGSLIGDKAALTITGAQTEDEAIYFCALWYSNHWVFGGGTKLTVL
notes: as for B1
With B7 the Mean fluorescence intensity [1] was 1650 MFI, the “Reporter assay (RLU) … by 4 times” value [2] was 27400 RLU and the “Reporter assay (RLU) … by 20 times” value [2] was 14800 RLU. It also gave a Mean fluorescence intensity [3] of 284 MFI, an OD450 (human CD3ε/δ-His) of 1.56 OD450 and an OD450 (monkey CD3ε/δ-His) of 1.46 OD450.
